{
  "source": "the supplement of paper PMC9112550",
  "about": "“Optimization of the antimicrobial peptide Bac7 by deep mutational scanning” (BMC Biology, 2022);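 further: peptides expressed intracellularly from a pBAD plasmid library in pooled LB shake-flask culture, induced with 0.3% L-arabinose, DNA abundance read by NGS, three biological replicates, DESeq2 with apeglm shrinkage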",
  "data": [
    {"tested_on": "Escherichia coli TOP10", "experiment": "shrunken log2 fold change of peptide-encoding DNA abundance (4.5 h post-induction vs induction); higher = less antimicrobial activity (less host growth inhibition)", "settings": "time post-induction: 4.5 h; library: site-saturation at positions 5, 18, 19, 20", "values": [
      {"sequence": "RRIRGRPPRLPRPRPRPPMEPRP", "shrunken log2 fold change": -0.0178},
      {"sequence": "RRIRLRPPRLPRPRPRPMKEPRP", "shrunken log2 fold change": -0.019},
      {"sequence": "RRIRKRPPRLPRPRPRPDWNPRP", "shrunken log2 fold change": 0.158},
      {"sequence": "RRIRTRPPRLPRPRPRPGCKPRP", "shrunken log2 fold change": -0.161},
      {"sequence": "RRIRARPPRLPRPRPRPFGSPRP", "shrunken log2 fold change": -0.0315},
      {"sequence": "RRIRDRPPRLPRPRPRPTQVPRP", "shrunken log2 fold change": 0.0721},
      {"sequence": "RRIRMRPPRLPRPRPRPKPIPRP", "shrunken log2 fold change": 0.32},
      {"sequence": "RRIRDRPPRLPRPRPRPDFNPRP", "shrunken log2 fold change": -0.188},
      {"sequence": "RRIRCRPPRLPRPRPRPVGMPRP", "shrunken log2 fold change": 0.0711},
      {"sequence": "RRIRHRPPRLPRPRPRPAPQPRP", "shrunken log2 fold change": 0.588},
      {"sequence": "RRIRVRPPRLPRPRPRPWSAPRP", "shrunken log2 fold change": -0.135},
      {"sequence": "RRIRVRPPRLPRPRPRPCFDPRP", "shrunken log2 fold change": -0.121},
      {"sequence": "RRIRSRPPRLPRPRPRPGPFPRP", "shrunken log2 fold change": 0.00218},
      {"sequence": "RRIRWRPPRLPRPRPRPHDEPRP", "shrunken log2 fold change": -0.2},
      {"sequence": "RRIRSRPPRLPRPRPRPWLCPRP", "shrunken log2 fold change": -0.0753},
      {"sequence": "RRIRVRPPRLPRPRPRPSCFPRP", "shrunken log2 fold change": -0.264},
      {"sequence": "RRIRPRPPRLPRPRPRPGTPPRP", "shrunken log2 fold change": 0.0946},
      {"sequence": "RRIRNRPPRLPRPRPRPSWWPRP", "shrunken log2 fold change": 0.28},
      {"sequence": "RRIRVRPPRLPRPRPRPLWGPRP", "shrunken log2 fold change": 0.0188},
      {"sequence": "RRIRTRPPRLPRPRPRPSYTPRP", "shrunken log2 fold change": -0.761},
      {"sequence": "RRIRQRPPRLPRPRPRPEGRPRP", "shrunken log2 fold change": 0.00666},
      {"sequence": "RRIRARPPRLPRPRPRPFRSPRP", "shrunken log2 fold change": -0.0968},
      {"sequence": "RRIRRRPPRLPRPRPRPECIPRP", "shrunken log2 fold change": 0.282},
      {"sequence": "RRIRQRPPRLPRPRPRPAMSPRP", "shrunken log2 fold change": 0.322},
      {"sequence": "RRIRPRPPRLPRPRPRPMYYPRP", "shrunken log2 fold change": -0.631},
      {"sequence": "RRIRNRPPRLPRPRPRPFIEPRP", "shrunken log2 fold change": -0.412},
      {"sequence": "RRIRTRPPRLPRPRPRPYFWPRP", "shrunken log2 fold change": -0.299},
      {"sequence": "RRIRRRPPRLPRPRPRPKLEPRP", "shrunken log2 fold change": 0.297},
      {"sequence": "RRIRRRPPRLPRPRPRPHRDPRP", "shrunken log2 fold change": 0.546},
      {"sequence": "RRIRLRPPRLPRPRPRPKFNPRP", "shrunken log2 fold change": -0.437},
      {"sequence": "RRIRVRPPRLPRPRPRPCHQPRP", "shrunken log2 fold change": -0.483},
      {"sequence": "RRIRQRPPRLPRPRPRPGGYPRP", "shrunken log2 fold change": 0.144},
      {"sequence": "RRIRKRPPRLPRPRPRPENFPRP", "shrunken log2 fold change": -0.00264},
      {"sequence": "RRIRWRPPRLPRPRPRPVYKPRP", "shrunken log2 fold change": -0.516},
      {"sequence": "RRIRPRPPRLPRPRPRPWIGPRP", "shrunken log2 fold change": -0.0305},
      {"sequence": "RRIRFRPPRLPRPRPRPTVWPRP", "shrunken log2 fold change": 0.19},
      {"sequence": "RRIRERPPRLPRPRPRPRSGPRP", "shrunken log2 fold change": -0.049},
      {"sequence": "RRIRVRPPRLPRPRPRPRLHPRP", "shrunken log2 fold change": 0.0296},
      {"sequence": "RRIRIRPPRLPRPRPRPETVPRP", "shrunken log2 fold change": -0.344},
      {"sequence": "RRIRWRPPRLPRPRPRPFQQPRP", "shrunken log2 fold change": -0.0106},
      {"sequence": "RRIRWRPPRLPRPRPRPGLGPRP", "shrunken log2 fold change": 0.83},
      {"sequence": "RRIRWRPPRLPRPRPRPAGDPRP", "shrunken log2 fold change": 0.363},
      {"sequence": "RRIRGRPPRLPRPRPRPQVVPRP", "shrunken log2 fold change": 0.0944},
      {"sequence": "RRIRNRPPRLPRPRPRPETEPRP", "shrunken log2 fold change": -0.0793},
      {"sequence": "RRIRRRPPRLPRPRPRPHWCPRP", "shrunken log2 fold change": 0.0137},
      {"sequence": "RRIRARPPRLPRPRPRPNPCPRP", "shrunken log2 fold change": 0.0698},
      {"sequence": "RRIRDRPPRLPRPRPRPMVHPRP", "shrunken log2 fold change": 0.234},
      {"sequence": "RRIRQRPPRLPRPRPRPPHFPRP", "shrunken log2 fold change": 0.00908},
      {"sequence": "RRIRSRPPRLPRPRPRPPEVPRP", "shrunken log2 fold change": 0.287},
      {"sequence": "RRIRCRPPRLPRPRPRPTERPRP", "shrunken log2 fold change": 0.211},
      {"sequence": "RRIRGRPPRLPRPRPRPADIPRP", "shrunken log2 fold change": -0.229},
      {"sequence": "RRIRMRPPRLPRPRPRPYDGPRP", "shrunken log2 fold change": -0.0589},
      {"sequence": "RRIRDRPPRLPRPRPRPFVVPRP", "shrunken log2 fold change": -0.266},
      {"sequence": "RRIRRRPPRLPRPRPRPQWLPRP", "shrunken log2 fold change": 0.431},
      {"sequence": "RRIRRRPPRLPRPRPRPYAGPRP", "shrunken log2 fold change": -0.137},
      {"sequence": "RRIRRRPPRLPRPRPRPIFYPRP", "shrunken log2 fold change": -0.0503},
      {"sequence": "RRIRKRPPRLPRPRPRPIGSPRP", "shrunken log2 fold change": -0.0113},
      {"sequence": "RRIRPRPPRLPRPRPRPRRFPRP", "shrunken log2 fold change": 0.0399},
      {"sequence": "RRIRNRPPRLPRPRPRPRPEPRP", "shrunken log2 fold change": 0.295},
      {"sequence": "RRIRQRPPRLPRPRPRPCPEPRP", "shrunken log2 fold change": -0.249},
      {"sequence": "RRIRIRPPRLPRPRPRPTQWPRP", "shrunken log2 fold change": -0.136},
      {"sequence": "RRIRYRPPRLPRPRPRPQKRPRP", "shrunken log2 fold change": -0.0426},
      {"sequence": "RRIRIRPPRLPRPRPRPWSIPRP", "shrunken log2 fold change": -0.211},
      {"sequence": "RRIRIRPPRLPRPRPRPCQIPRP", "shrunken log2 fold change": -0.0429},
      {"sequence": "RRIRARPPRLPRPRPRPKRFPRP", "shrunken log2 fold change": 0.249},
      {"sequence": "RRIRNRPPRLPRPRPRPQHCPRP", "shrunken log2 fold change": -0.065},
      {"sequence": "RRIRSRPPRLPRPRPRPLNSPRP", "shrunken log2 fold change": -0.327},
      {"sequence": "RRIRPRPPRLPRPRPRPNFPPRP", "shrunken log2 fold change": 0.0652},
      {"sequence": "RRIRERPPRLPRPRPRPDLQPRP", "shrunken log2 fold change": 0.00923},
      {"sequence": "RRIRIRPPRLPRPRPRPTVWPRP", "shrunken log2 fold change": 0.163},
      {"sequence": "RRIRDRPPRLPRPRPRPDMTPRP", "shrunken log2 fold change": 0.242},
      {"sequence": "RRIRPRPPRLPRPRPRPFQFPRP", "shrunken log2 fold change": -0.467},
      {"sequence": "RRIRKRPPRLPRPRPRPAKLPRP", "shrunken log2 fold change": 0.446},
      {"sequence": "RRIRLRPPRLPRPRPRPGARPRP", "shrunken log2 fold change": 0.369},
      {"sequence": "RRIRVRPPRLPRPRPRPAVMPRP", "shrunken log2 fold change": -0.0705}
    ]}
  ]
}
